Test results: the DeepSol protein solubility set

experiment: soluble on expression in E. coli; label from the status in PepcDB or PDB records

Sequence | soluble on expression in E. coli
MELKKLMGHISIIPDYRQAWKMEHKLSDILLLTICAVISGAEGWEDIEDFGETHPDFLKQYGDFENGIPVHDTIARVVSCISPAKFHECFINWMRDCHSSDDKDVIAIDGKTLRHSYDKSRRRGAIHVISAFSTMHSLVIGQIKTDEKSNEITAIPELLNMLDIKGKIITTDAMGCQKDIAEKIQKQGGDYLFAVKGNQGRLNKAFEEKFPLKELNNPAHDSYAMSEKSHGREEIRLHIVCDVPDELIDFTFEWKGLKKLCVAVSFRSIIAEQKKELEMTVRYYISSADLTAEKFATAIRNHWHVENKLHWRLDVVMNEDDCKIRRGNAAELFSGIRHIAINILTNDKVFKAGLRRKMRKAAMDRNYLASVLTGSGLS | soluble
MELLLSKVTDAGIDPSSVSGEEAITLWEHIGRHIASTSREKAHCLIISAEYRREIKQLCDSIEELRQALELLSLPEDVEDILSVKASLSERLVEVGDYNSALTEYIASTNIAVEYGFIDEYVLAIIGMGNLCDAYGDHNRALRYYQKIDAIDHAISSRSLRLRYKLYMLACYISLKRVAEASELLGECEELSILVSDKNLAAQTHLYRAKLHRLQEEYSEALLSISSIKYTTGSATTYWLSTMVKIETAYCLNGVGHTSLANLLLESIGKRIKKHSSPILAKRFYNAMSKVSASQGQFQQALSCEKRAFRIESDLIKHIPISELGAAQLRRLSRFELQLKLILSEIENKEL | not soluble
MELQDLELQLEERLLGLEEQLRAVRMPSPFRSSALMGMCGSRSTDNLSCPSPLNVMEPVTELMQEQSYLKSELGLGLGEMGFEIPPGESSESVFSKQRSESSSICSGPSHANRRTGVPSTASVGKSKTPLVARKKVFRASVALTPTAPSRTGSVQTPPDLESSEEVDAAEGAPEVVGPKSESEVEEGHGKLPSMPAAEEMHKNVEQDELQQVIREIKESIVGEIRREIVSGLLAAVSSSKASNSKQDYHLEHHHHHH | not soluble
MELSDSKVIAADRATVWAALLSPEVLKECVPGCQEMSGSPDEGFEATVVQKVGPVKATFKGGVTLSEMVAPESLTLSGEGKGGAAGFAKGAARVRLEEGADGTTILSYEVEAKVGGKLAQLGSRIIDGFARKMADQFFTRFQEVLEGPGEAESPEAEASGDAKKKGWFKRVISGLEHHHHHH | soluble
MENALSTLPLTAPSAELPRFGPPHIPIREDWLDRQREEILDPGLPIVDAHHHLWDRPGQRYMFEDFLRDTGSGHNIRATVYVQCRSMYRLDGPAAMRPVGEAEFVNGVAARSASGMYGPMRACAAIVGYADLTLGAAVEEVLHALVRAAPDRLRGVRNMTAAHASPAVAPGFGRVPEGLLSDARFRAGYARLAPLGLSYDVWAFHSQLAEVLDLARAYPDTALIVNHAGGPLGIGPYAGQRDAVMRDWDHHLRALADCPNVALKLGGLGMHISGLRFHEQDMPPSSEALAEAWRPWIHTAIERFGAQRCMFESNFPVDKGMAAYAAVWNAFKRLARGATPRERQALFAGTAARLYRLPASVLALEHHHHHH | not soluble
MENEQQQAQTAPSCRAGCGFFGASATEGYCSQCFKNTLKRQQDTVRLTSPVVSPSSMAATSSALKSEPSSVDMCMKAAVSVSDETAKMDCEDIINVCDQINDDSVTVAESTAPTTITVDVPVPVKKANRCHMCKKRVGLTGFSCRCGGLYCGDHRYDQAHNCQFDYKTMERETIRKNNPVVVSDKVQRI | soluble
MENGEAKQSVPLLTPYKMGRFNLSHRVVLAPLTRQRSYGNVPQPHAAIYYSQRTTPGGFLITEATGVSDTAQGYQDTPGIWTKEHVEAWKPIVDAVHAKGGIFFCQIWHVGRVSNSGFQPNGKAPISCSDKPLMPQIRSNGIDEALFTPPRRLGIEEIPGIVNDFRLAARNAMEAGFDGVEIHGANGYLIDQFMKDTVNDRTDEYGGSLQNRCKFPLEIVDAVAKEIGPDRVGIRLSPFADYMESGDTNPGALGLYMAESLNKYGILYCHVIEARMKTMGEVHACPHTLMPMRKAFKGTFISAGGFTREDGNEAVSKGRTDLVAYGRWFLANPDLPKRFQVDAPLNKYDRPTFYTSDPVVGYTDYPFLESTA | soluble
MENKYTHGVLFYHEHSGLKNINQGIGEVTTALSSICKHLSIQLSENEGDIIKYCQEIKTKNYAKDVDILFILGGDGTVNELINGVMSHDLQLPIGILPGGTFNDFTKTLNIAPNHKQASEQMISAQVGTYDVIKINNQYALNFVGLGLIVQNAENVQDGSKDIFGKLSYIGSTVKTLLNPTQFNYQLSIDDKTYSGETTMILTANGPFIGGSRIPLTDLSPQDGELNTFIFNEQSFSILNDIFKKRDSMNWNEITQGIEHIPGKKISLTTDPAMKVDIDGEISLETPIDIEVIPNAIQLLTVNDL | soluble
MENPINELAAAVHDGLGLTYPPIIDMGPQLTREQLLASMSATMRRHKGGPVWLFAYGSLIWRPECTAVESQRGRVHGYHRGLYLWSHEHRGTPEVPGLVFGLDRGGSCTGFAYRLPDDCLEKSLLALWEREMPYPSYRPHWLNCRLEDGRKVQALGFVLERHLPSYAGNLPDSVLSQVLASASGRYGTTRDYVEQTAKALRSHAMPDLNLEARLKRCKSETAAAALEHHHHHH | not soluble
MENSFELMAREWHKNKADRWSLRYREEIIDTFEKDIFPFIGRRPIADIKPMELLETLKRMEKRGALEKMRKVRQRCGEVFRYAIITGRAEYNPAPDLAGALQTHKKQHLPLEHHHHHH | not soluble
MENVCFQQRLRDLETRVRKWKFLKLGLTEVRLRPRDRRSTSVDQKHKECSSTSSSPQHQRPNNIGYLTSPMERKFTPLSMKPSPSRRDTEKDALEYEFLEGYKKSGTLEIDGEKQVVDPNEIHIISLLGSGSCGVVESATVRSKLMAVKTMYKNDNKENLKRILRDVRIMSMCNSPFIVTSYGYFMFDSSVKICMQIMSACCEKLLRRIYHSKLDFFPEFVAGHIVYSAISALDYLKEKHSIIHRDIKPSNILFDDSGNVKLCDFGISGFMTDSMAHSKSAGCPPYMAPERLTIETNSKYDVRSDVWSLGITVYQLVTGLYPFPLNDMEFTTLTIIANLNLPSPSLREETKRSFSPLFIEFLDLCLRKDVRERPEYRQLMKHDFYLDYDPASGSAYKFKAINGKCNQVADWFVDVIRLSKTEDELKSIPNTPCVN | not soluble
MENYLIDNLDRGILEALMGNARTAYAELAKQFGVSPETIHVRVEKMKQAGIITGARIDVSPKQLGYDVGCFIGIILKSAKDYPSALAKLESLDEVTEAYYTTGHYSIFIKVMCRSIDALQHVLINKIQTIDEIQSTETLIVLQNPIMRTIKP | soluble
MEPKDTTTNDAFKGFTNTACPFLPCHKGVKREFNCLFCYCPLIAYECPGPYQVYTDKNGLTRKDCTNCTLPHDGYLASWNFIQKWLERPVIWSGAAQTTPPTRRPGRAPGDGDEELEHHHHHH | soluble
MEPPSPVGNPEIPSEIPKNAEKTVYKYIDEQGIEIFIEDPIYVEENGNTMVYGNPYDPTTSSQEIYEEEIVDEEYIFQVDSLPSTSSSSAAAPPPSKRARLIKDGVAYPSNTVLLTNQSLEAKNATFLAKAGARREEKEPKKQIPMINKHGSILNRNLPGMTNMFKVMAESALAKTDEMIKQEAMNNTVEEVEKGRKLDNSSRFGLENEESDQDGQSDTPPPMERLGEADDFQPTTTTFDQWPLYSNRAIDFKGFSTYQKKNYFENWKILSSFKKVFSKNFQFLAKILKFISMRDPHRNSRNRRGKNIPSGKTRFYTETADGNLIRADDGKGRLKQWTKEFTYKIILKKYDNQVTRGGDEGRGQFQRKIYTGFKGAGRLPFSIVTYSWHAGRPWNFVPPVTSRQTVRRPNWEKKSYEKVNMTSMPQMVSAYYEGFNIYSHCIVSFDEATAIMLGATPIDTNKLVIIIVAGPKISRNFPIFRLCSSVPLGYRQNGTFVIDLKRMGHCLLELRRDDNGIWNKPSGFSRFYKISENGDAIRVDKAGKLPAGMDYDVKIASKRYEHTQVQKNFVRKIYTAKGKNSESFPGSPEYAVIVYYWKGEPIQFEPAFKQNGVRTESKEYSRYQQIADEEQEFVEATGSMDPVVENLQKNLAPSPPPLLKRVTFPPEPQQSTSSTSAENLHELKLQLIRREMQNQDRFSAVLDRADGLLARMEQRFGVEHHHHIVHQEQEEEVWDHEQIIEEEEVIVQDTMEY | not soluble
MEQCNERPKVSVIIPVYNTCNYVQEALESICQQTLEELEIIVIDDGSTDCSRAIVEEIAIKDTRIQVYKQSNQGLSITRNQGLKFSTGEYIYFMDSDDFLEPDALELCYRKCTKEALDFVFFDAETFTIEPNIPESSFDYQRTLDLPEKICSGIDMLKTQLKTYKFKSSVCLNLFHREFICEERLSFYPGILHEDQLFMIQAYLHASKTGFIRRSFFHRRIRTNSIMTKKFTWKNMEGYLTVTNELLRELPIYPKTYHHTIFFFLRQMLDAAVWQAHTLSLPQRIKLFSLCLKYYRPYVTMRTLMVLLLKTSIHPRQ | soluble
MEQEAERRRQPQIKQEPESEEEEEEKQEKEEKREEPVEEEEEPEQKPCLKPTLRPISSAPSVSSASGNATPNTPGDESPCGIIIPHENSPDQQQPEEHRPKIGLSLKLGASNSPGQPNSVKRKKLPVDSVFNKFEDEDSDDVPRKRKLVPLDYGEDDKNATKGTVNTEEKRKHIKSLIEKIPTAKPELFAYPLDWSIVDSILMERRIRPWINKKIIEYIGEEEATLVDFVCSKVMAHSSPQSILDDVAMVLDEEAEVFIVKMWRLLIYETEAKKIGLVK | soluble
MERGQSLALQSNRNRPYMIRIIQPILRSERRRKLGREYFILHRKLSDCFSSIKWALPAKGDNSHGCSYPVMEHRSLIMRRLKDVDMYMQENKRTNLRLAISKLHGMIIRPGETFSVWRHVGRPTARKGYLEGLVLSQGKIGKGVGGGLCQLGNLLFWMFAHTPLSIVERHRHSFDVFPDINRSIPFGAGATLSYNYIDLRVSNNTPHTYRLELWLDDTHLNGRISSDTEQRDRYRIEETDHRIEHQSWGGYTRHNKLVRIVTRADGSEYTEPFVENHAIMMYNPLLSPPQNGASTSFQR | not soluble
MERGVDNWKVDCKCGTKDDDGERMLACDGCGVWHHTRCIGINNADALPSKFLCFRCIEL | soluble
MERKISDEECPVRKSMQIFAGKWTLLIIFQINRRIIRYGELKRAIPGISEKMLIDELKFLCGKGLIKKKQYPEVPPRVEYSLTPLGEKVLPIIDEIAKFGMENL | soluble
MERTVKLRVKVDYSTYSALKEVEKEYREVLEDAINYGLSNKTTSFTRIKAGVYKTEREKHKDLPSHYIYTACEDASERLDSFEKLKKRGRSYTEKPSVRRVTIHLDDHLWKFNLDTISISTKRSRILISPTFPKIFWRYYNTEWRIASEARFRLMKGNVVEFYVIFKRDEPKPYEPKAFIPVDLNENSVSVLINSKPLLLETNTKKITLGYEYRRKAITTGKSTKDREVRRKLKRLRERNKKVDIRRKLAKLIVKEAFESRSAIVLEDLPRRTPEHMIKDVKDKQLRLRIYRSAFSSMKNAIIEKAREFGVPVVLVNPSYTSTVCPIHGANIVYQLDGGDAPRVGVCEKGKEKWHRDVVALYNLARRAGDVSPVPLGSKESHDPPTLSGWLRAKSLHSIMNEHKMIEMKVLEHHHHHH | soluble
MESEFLYDLLQLPKEVAQPTEEELPRGGKKKYLSPNSKRNPKFEELQKVLMEWINTTLLPEHIVVRSLEEDMFDGLILHHLFQKLASLKLEVEEISLTSASQRHKLGVILEAVNQNLQVEEKQAKWSVETIFNKDLLATLHLLVALAKRFQPDLPLPDNVQVEVIHIESTKTGLKSDKQVEQLTECKSHKDQPLQDAFDELFKLAPEKVHAVQEAIVSFVNQKLERLGLSVQSLDTQFADGVILLLLIGQLEGFFLHLTEFYLTPSSPTEMLHNVTLALDLLKDEGLFSYPVNPEDIVNKDAKSTLRILYSLFQKHSLRAEGGGAHHATPN | soluble
MESELSGISNENQISFFGFSAGSFSDSIFNIYVDAWEEVCSNEFKNSLKKLTDKDRLCLLSFPFSDKTNEKAFKMMKRFCVTNIFRIPASVTLPECKKMLIASAKEHKSLKQVEKEFDEKLEKIRQLRIKLAKRHDELEAVNNAIEVLHVMEKSQEQLISQKRIVPDSPTRMSPV | not soluble
